The results in this text go back to IntAct's records for PubMed 31515488.

Sequences and labels used below:
B1: Cysteine-rich C-terminal protein 1 (Homo sapiens), Q9UGL9 (parent)
chain: MSSQQSAVSAKGFSKGSSQGPAPCPAPAPTPAPASSSSCCGSGRGCCGDSGCCGSSSTSCCCFPRRRRRQRSSGCCCCGGGSQRSQRSNNRSSGCCSGC
partner: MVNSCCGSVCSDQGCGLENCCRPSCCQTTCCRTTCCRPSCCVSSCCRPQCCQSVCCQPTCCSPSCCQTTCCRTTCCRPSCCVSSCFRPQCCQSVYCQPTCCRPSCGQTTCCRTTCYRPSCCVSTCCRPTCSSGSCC
B2: Rieske domain-containing protein (Homo sapiens), Q8TAC1 (parent)
chain: MNLDGSAQDPEKREYSSVCVGREDDIKKSERMTAVVHDREVVIFYHKGEYHAMDIRCYHSGGPLHLGDIEDFDGRPCIVCPWHKYKITLATGEGLYQSINPKDPSAKPKWCSKGIKQRIHTVTVDNGNIYVTLSNEPFKCDSDFYATGDFKVIKSSS
partner: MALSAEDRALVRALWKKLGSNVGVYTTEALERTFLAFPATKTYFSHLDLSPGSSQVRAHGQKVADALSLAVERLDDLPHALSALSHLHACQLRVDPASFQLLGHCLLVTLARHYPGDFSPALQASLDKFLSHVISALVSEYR
B3: Epidermal growth factor receptor substrate 15-like 1 (Homo sapiens), Q9UBC2 (parent)
chain: MAAPLIPLSQQIPTGNSLYESYYKQVDPAYTGRVGASEAALFLKKSGLSDIILGKIWDLADPEGKGFLDKQGFYVALRLVACAQSGHEVTLSNLNLSMPPPKFHDTSSPLMVTPPSAEAHWAVRVEEKAKFDGIFESLLPINGLLSGDKVKPVLMNSKLPLDVLGRVWDLSDIDKDGHLDRDEFAVAMHLVYRALEKEPVPSALPPSLIPPSKRKKTVFPGAVPVLPASPPPKDSLRSTPSHGSVSSLNSTGSLSPKHSLKQTQPTVNWVVPVADKMRFDEIFLKTDLDLDGYVSGQEVKEIFMHSGLTQNLLAHIWALADTRQTGKLSKDQFALAMYFIQQKVSKGIDPPQVLSPDMVPPSERGTPGPDSSGSLGSGEFTGVKELDDISQEIAQLQREKYSLEQDIREKEEAIRQKTSEVQELQNDLDRETSSLQELEAQKQDAQDRLDEMDQQKAKLRDMLSDVRQKCQDETQMISSLKTQIQSQESDLKSQEDDLNRAKSELNRLQQEETQLEQSIQAGRVQLETIIKSLKSTQDEINQARSKLSQLHESRQEAHRSLEQYDQVLDGAHGASLTDLANLSEGVSLAERGSFGAMDDPFKNKALLFSNNTQELHPDPFQTEDPFKSDPFKGADPFKGDPFQNDPFAEQQTTSTDPFGGDPFKESDPFRGSATDDFFKKQTKNDPFTSDPFTKNPSLPSKLDPFESSDPFSSSSVSSKGSDPFGTLDPFGSGSFNSAEGFADFSQMSKPPPSGPFTSSLGGAGFSDDPFKSKQDTPALPPKKPAPPRPKPPSGKSTPVSQLGSADFPEAPDPFQPLGADSGDPFQSKKGFGDPFSGKDPFVPSSAAKPSKASASGFADFTSVS
partner: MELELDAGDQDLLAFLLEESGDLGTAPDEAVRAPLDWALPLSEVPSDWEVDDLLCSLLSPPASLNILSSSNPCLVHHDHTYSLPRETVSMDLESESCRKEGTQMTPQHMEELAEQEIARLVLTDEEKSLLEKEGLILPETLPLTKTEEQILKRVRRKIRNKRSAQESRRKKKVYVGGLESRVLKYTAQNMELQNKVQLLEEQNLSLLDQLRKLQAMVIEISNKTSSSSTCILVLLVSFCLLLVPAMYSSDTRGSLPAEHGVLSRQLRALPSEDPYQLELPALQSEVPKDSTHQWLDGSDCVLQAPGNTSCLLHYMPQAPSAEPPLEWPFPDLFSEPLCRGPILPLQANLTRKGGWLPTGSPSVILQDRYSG
B4: E3 ubiquitin-protein ligase CBL-B (Homo sapiens), Q13191 (parent)
chain: MANSMNGRNPGGRGGNPRKGRILGIIDAIQDAVGPPKQAAADRRTVEKTWKLMDKVVRLCQNPKLQLKNSPPYILDILPDTYQHLRLILSKYDDNQKLAQLSENEYFKIYIDSLMKKSKRAIRLFKEGKERMYEEQSQDRRNLTKLSLIFSHMLAEIKAIFPNGQFQGDNFRITKADAAEFWRKFFGDKTIVPWKVFRQCLHEVHQISSGLEAMALKSTIDLTCNDYISVFEFDIFTRLFQPWGSILRNWNFLAVTHPGYMAFLTYDEVKARLQKYSTKPGSYIFRLSCTRLGQWAIGYVTGDGNILQTIPHNKPLFQALIDGSREGFYLYPDGRSYNPDLTGLCEPTPHDHIKVTQEQYELYCEMGSTFQLCKICAENDKDVKIEPCGHLMCTSCLTAWQESDGQGCPFCRCEIKGTEPIIVDPFDPRDEGSRCCSIIDPFGMPMLDLDDDDDREESLMMNRLANVRKCTDRQNSPVTSPGSSPLAQRRKPQPDPLQIPHLSLPPVPPRLDLIQKGIVRSPCGSPTGSPKSSPCMVRKQDKPLPAPPPPLRDPPPPPPERPPPIPPDNRLSRHIHHVESVPSRDPPMPLEAWCPRDVFGTNQLVGCRLLGEGSPKPGITASSNVNGRHSRVGSDPVLMRKHRRHDLPLEGAKVFSNGHLGSEEYDVPPRLSPPPPVTTLLPSIKCTGPLANSLSEKTRDPVEEDDDEYKIPSSHPVSLNSQPSHCHNVKPPVRSCDNGHCMLNGTHGPSSEKKSNIPDLSIYLKGDVFDSASDPVPLPPARPPTRDNPKHGSSLNRTPSDYDLLIPPLGEDAFDALPPSLPPPPPPARHSLIEHSKPPGSSSRPSSGQDLFLLPSDPFVDLASGQVPLPPARRLPGENVKTNRTSQDYDQLPSCSDGSQAPARPPKPRPRRTAPEIHHRKPHGPEAALENVDAKIAKLMGEGYAFEEVKRALEIAQNNVEVARSILREFAFPPPVSPRLNL
B5: Endophilin-B2 (Homo sapiens), Q9NR46 (parent)
chain: MDFNMKKLASDAGIFFTRAVQFTEEKFGQAEKTELDAHFENLLARADSTKNWTEKILRQTEVLLQPNPSARVEEFLYEKLDRKVPSRVTNGELLAQYMADAASELGPTTPYGKTLIKVAEAEKQLGAAERDFIHTASISFLTPLRNFLEGDWKTISKERRLLQNRRLDLDACKARLKKAKAAEAKATTVPDFQETRPRNYILSASASALWNDEVDKAEQELRVAQTEFDRQAEVTRLLLEGISSTHVNHLRCLHEFVKSQTTYYAQCYRHMLDLQKQLGRFPGTFVGTTEPASPPLSSTSPTTAAATMPVVPSVASLAPPGEASLCLEEVAPPASGTRKARVLYDYEAADSSELALLADELITVYSLPGMDPDWLIGERGNKKGKVPVTYLELLS
partner: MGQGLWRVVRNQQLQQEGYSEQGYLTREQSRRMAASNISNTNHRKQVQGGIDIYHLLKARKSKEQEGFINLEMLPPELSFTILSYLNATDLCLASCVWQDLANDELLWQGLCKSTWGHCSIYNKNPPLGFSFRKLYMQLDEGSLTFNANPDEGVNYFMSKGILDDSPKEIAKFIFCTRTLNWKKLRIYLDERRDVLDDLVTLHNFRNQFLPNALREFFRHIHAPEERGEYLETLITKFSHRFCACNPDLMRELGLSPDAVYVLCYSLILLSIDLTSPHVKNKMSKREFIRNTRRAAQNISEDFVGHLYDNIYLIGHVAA
B6: Membrane protein FAM174A (Homo sapiens), Q8TBP5 (parent)
chain: MKASQCCCCLSHLLASVLLLLLLPELSGPLAVLLQAAEAAPGLGPPDPRPRTLPPLPPGPTPAQQPGRGLAEAAGPRGSEGGNGSNPVAGLETDDHGGKAGEGSVGGGLAVSPNPGDKPMTQRALTVLMVVSGAVLVYFVVRTVRMRRRNRKTRRYGVLDTNIENMELTPLEQDDEDDDNTLFDANHPRR
partner: B3 partner
B7: Ribosome-recycling factor, mitochondrial (Homo sapiens), Q96E11 (parent)
chain: MALGLKCFRMVHPTFRNYLAASIRPVSEVTLKTVHERQHGHRQYMAYSAVPVRHFATKKAKAKGKGQSQTRVNINAALVEDIINLEEVNEEMKSVIEALKDNFNKTLNIRTSPGSLDKIAVVTADGKLALNQISQISMKSPQLILVNMASFPECTAAAIKAIRESGMNLNPEVEGTLIRVPIPQVTREHREMLVKLAKQNTNKAKDSLRKVRTNSMNKLKKSKDTVSEDTIRLIEKQISQMADDTVAELDRHLAVKTKELLG
partner: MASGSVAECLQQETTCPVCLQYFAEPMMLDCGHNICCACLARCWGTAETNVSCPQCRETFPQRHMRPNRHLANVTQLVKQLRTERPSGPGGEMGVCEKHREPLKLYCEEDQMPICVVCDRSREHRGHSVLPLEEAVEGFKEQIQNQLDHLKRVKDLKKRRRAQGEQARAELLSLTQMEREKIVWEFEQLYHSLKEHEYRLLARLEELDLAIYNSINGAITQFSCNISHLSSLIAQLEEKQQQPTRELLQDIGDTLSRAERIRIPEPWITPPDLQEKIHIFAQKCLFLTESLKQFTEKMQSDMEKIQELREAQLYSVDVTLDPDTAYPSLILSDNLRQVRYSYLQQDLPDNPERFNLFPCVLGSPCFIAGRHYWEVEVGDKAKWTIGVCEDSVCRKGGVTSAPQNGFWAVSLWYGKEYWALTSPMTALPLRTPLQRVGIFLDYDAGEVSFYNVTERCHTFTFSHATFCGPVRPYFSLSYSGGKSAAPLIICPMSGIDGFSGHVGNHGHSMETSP

The first test covers variants of B1. To be noted: with kra42_human KRTAP4-2, Q9BYR5.
On to MSSQQSAVSAKGFSKGSSQSPAPCPAPAPTPAPASSSSCCGSGRGCCGDSGCCGSSSTSCCCFPRRRRRQRSSGCCCCGGGSQRSQRSNNRSSGCCSGC, for which the “effect of a mutation on the interaction” value was “with no effect”.

Variants of B2 are the subject of a further test. The note with it: with hbat_human HBQ1, P09105.
Regarding D38A, the “effect of a mutation on the interaction” value is listed as “disrupting interaction strength”.

The next test covers variants of B3. To be noted: with creb3_human CREB3, O43889.
As to P356L, the “effect of a mutation on the interaction” value was “with no effect”.

Another test covers variants of B4. The note with it: with gors2_human GORASP2, Q9H8Y8.
On to S622T, for which the “effect of a mutation on the interaction” value is “with no effect”.

Variants of B5 are the subject of another test. The note with it: with fbx8_human FBXO8, Q9NRD0.
Consider MDFNMKKLASDAGIFFTRAVQFTEEKFGQAEKTELDAHFENLLARADSTKNWTEKILRQTEVLLQPNPSARVEEFLYEKLDRKVPSRVTNGELLAQYMADAASELGPTTPYGKTLIKVAEAEKQLGAAERDFIHTASISFLTPLRNFLEGDWKTISKERRLLQNRRLDLDACKARLKKAKAAEAKATTVPDFQETRPRNYILSASASALWNDEVDKAEQELRMAQTEFDRQAEVTRLLLEGISSTHVNHLRCLHEFVKSQTTYYAQCYRHMLDLQKQLGRFPGTFVGTTEPASPPLSSTSPTTAAATMPVVPSVASLAPPGEASLCLEEVAPPASGTRKARVLYDYEAADSSELALLADELITVYSLPGMDPDWLIGERGNKKGKVPVTYLELLS [V223M], for which the “effect of a mutation on the interaction” value is given as “with no effect”.

Another test covers variants of B6. To be noted: with creb3_human CREB3, O43889.
Turning to MKASQCCCCLSHLLASVLLLLLLPELSGPLAVLLQAAEAAPGLGPPDPRPRTLPPLPPGPTPAQQPGRGLAEAAGPRGSEGGNGSNPVAGLETDGHGGKAGEGSVGGGLAVSPNPGDKPMTQRALTVLMVVSGAVLVYFVVRTVRMRRRNRKTRRYGVLDTNIENMELTPLEQDDEDDDNTLFDANHPRR, the “effect of a mutation on the interaction” value is on record as “with no effect”.

Variants of B7 are the subject of another test. To be noted: with tri27_human TRIM27, P14373.
For MALGLKCFRMVHPTFRNYLAASIRPVSEVTLKTVHERQHGHRQYMAYSAVPVRHFATKKAKAKGKGQSQTRVNINAALVEDIINLEEVNEEMKSVIEALKDNFNKTLNIRTSPGSLDKIAVVTADGKLALNQISQISMKSPQLILVNMASFPECTAAAIKAIRESGMNLNPEVEGTLIRVPIPQVTREHREMLVKLAKQNTNKAKDSLRKVRTNSVNKLKKSKDTVSEDTIRLIEKQISQMADDTVAELDRHLAVKTKELLG [M216V], the “effect of a mutation on the interaction” value was “with no effect”.
